Test results: the supplement of paper PMC10567573

B1: ZMYND11 (parent)
chain: YCSIKCQQEHWHAEHKRTCRRKR

Variants of: B1
Assay: protein stability index of a GFP-peptide fusion (GPS, HEK-293T) (PSI 1-6); higher = more stable
Conditions: c terminus: native
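Note: lentivirally expressed fusions sorted by FACS into six bins by GFP to DsRed ratio, PSI derived from sequencing read proportions per bin multiplied by bin number.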

Protein stability index, by site and new letter:
A13: M 2.86, W 1.32, R 2.49, V 2.89, E 2.16, Q 2.18, H 3.55, K 2.65, I 2.58, F 1.83, Y 2.1, D 3.16, G 2.62, C 2.15, N 2.78, L 1.61, T 1.98, P 1.9
H15: V 1.24, R 2.18, P 2.71, S 2.44, T 2.41, I 1.95, W 1.69, E 2.79, K 2.01, C 2.38, Q 2.06, G 2.44, M 1.6, N 2.4, F 1.44, L 3.01, Y 2.01, A 1.9
E14: D 2.26, Q 2.26, A 2.94, K 2.92, Y 2.22, V 2.13, H 2.53, L 1.87, R 2.35, F 1.76, C 2.54, I 1.95, T 2.36, S 2.48, G 3.11, P 1.84, W 1.71, M 1.77, N 2.17
K5: C 3.25, M 2.27, A 2.09, E 2.51, T 2.6, N 2.53, R 3.15, L 2.09, S 2.22, D 2.63, Q 3.2, F 1.67, P 1.75, Y 2.91, G 2.09, I 1.56, H 2.07, V 1.66
K16: M 2.16, G 2.83, F 1.95, I 2.18, L 2.42, S 2.56, R 1.76, W 1.74, V 2.39, Q 2.34, N 2.11, E 2.46, T 2.71, A 2.53, H 2.84, Y 1.62, C 2.74, D 2.43
W11: K 3.52, G 4.05, L 2.97, N 3.98, R 2.96, P 4.14, T 4.7, I 3.03, C 3.41, F 2.76, H 3.45, V 3.48, M 3.58, A 2.98, D 4.43, Y 3.32, E 4.32, Q 4.24, S 3.2
Q8: D 2.7, V 1.78, A 2.33, Y 2.08, T 1.86, N 2.55, G 2.47, L 1.72, I 1.49, R 2.2, M 2.48, P 2.46, W 1.85, S 2.51, K 2.77, C 2.51, E 2.34, H 2.21, F 2.84
Q7: D 2.56, H 2.69, C 1.95, A 2.36, F 1.67, E 2.42, Y 2.35, W 1.53, V 1.37, T 2.63, G 2.46, I 2.44, S 3.18, L 2.21, M 2.15, N 2.38, P 2.2, K 3.05
R20: Y 2.28, V 2.8, T 3.02, G 2.65, Q 1.51, C 2, L 2.17, N 2.02, W 1.98, K 1.72, F 3.4, P 1.89, D 1.76, I 1.35, H 2.2, A 2.33, S 1.99
H10: P 2.1, S 2.36, G 2.81, E 2.18, L 1.65, N 3.26, R 3.33, M 1.4, Y 1.73, C 1.54, D 1.96, I 1.92, V 1.11, T 2.07, Q 2.45, A 1.95, K 2.12
E9: W 2.37, F 2.11, K 2.17, C 3.31, P 2.11, G 2.89, D 2.31, S 1.68, A 2.65, L 2.07, N 1.94, M 1.53, Q 1.52, Y 1.93, H 2.78, R 2.6, V 2.93, I 2.11, T 1.97
R21: K 2.92, I 2.99, V 2.61, P 1.52, G 2.84, N 1.98, L 2.2, F 2.45, H 1.97, W 1.94, C 2.15, A 2.2, T 2.41, E 2.43, Q 2.04, D 1.96, S 3.06, M 2.4, Y 2.2
I4: F 2.66, H 2.62, W 1.89, S 2.51, Y 3.92, T 2.08, G 1.84, L 2.14, Q 1.94, N 2.9, K 2.37, R 2.79, M 1.83, V 2.51, P 2.38
C6: E 2.87, N 1.76, D 2.69, R 1.56, G 2.74, Q 1.59, W 1.77, Y 2.07, S 2.38, A 2.39, T 1.87, V 2.59, M 1.9, P 2.57, H 2.9, K 2.69, I 1.78, F 1.96, L 1.75
H12: V 1.54, I 1.59, L 2.53, C 2.09, K 2.42, S 2.22, P 2.64, Q 2.36, A 2.35, Y 3.37, G 2.73, R 2.53, M 1.31, D 2.82, N 2.9, T 2.33, E 2.67
K22: C 2.6, F 2.13, G 2.33, A 1.83, D 1.85, H 1.74, E 2.41, I 2.37
R17: A 2.61, K 2.27, H 2.44, Q 2.39, F 1.8, M 2.32, Y 1.82, E 2.65, D 2.63, W 1.56, N 2.28, P 2.89, L 2.25, V 2.55, T 2.25, C 3.29, S 2.77, I 2.58
C19: F 2.24, H 2.71, G 2.71, E 2.75, L 2.83, K 2.3, P 3.4, N 2.21, A 2.84, S 2.82, V 2.48, R 2.76, D 3.46, Q 2.19, Y 3.63, W 1.98, I 2.72, T 2.77, M 2.41
T18: W 2.16, M 1.91, F 2.47, S 2.56, E 2.56, Q 3.08, G 2.39, I 2.76, K 2.84, N 3.18, P 2.08, A 2.36, V 1.61, D 2.95, L 1.27, Y 2.45, H 2.5, R 2.29, C 2.85
